Results from the DeepSol protein solubility set.

Test: soluble on expression in E. coli; label from the status in PepcDB or PDB records

Sequence	soluble on expression in E. coli
MGSDKIHHHHHHMIYKMTDKDMEILFERISKDFQSFGSKEENGDIVFGDIQRFSDISEEKSSYPPKDFLIERSENILSIPRAEKRAVFGVKSCDLRGFYIMDKQILGKDPFYTVKRENTMFINFVCEKMCSGGFCTSFGGPVLDEYDVQVLHKNGYFYVEASDKYEKYLFGFSESDDQNVFEEHKKEFESLYGRLNVDGIENRMKWSSNLWNKFANYCISCGACNYSCPTCYCVDVYDDDDGRKKEWDSCILEGFTRTAAGNVRPELSERLRQRFYHKFKYYKLSRGAYLCTGCNRCVDDCPVDIDIKEVITHDYDRE	not soluble
MGSDKIHHHHHHMIYLEQFTFPDGDRESIFFQDKVKRTCYDSYYPFQVLPGRGLERLDFDLITILYGGNGSGKSTLLNIIAEKTEIPRDAIYNKSNFFPDYVAMCEMQLKVFLPEHSRIITSDDVFDYMLNIRSLNEGIDRKREQLFDDYLEAKYSRFQLKSLADYEELKRVNHARFNSQSRFVRNELMDNAREYSNGENAFRYFTEKIDEKGLYLLDEPENSLSPKRQLELVQFIEDSARFWQCQFIIATHSPFLLALRGAKIYNLDETPVAVKRWTELENVRIYYDFFKKREREF	not soluble
MGSDKIHHHHHHMIYRNWLGIIGVACILFVSCKPTEVDVPITYYSSFLLKDTTVMLSKVEMDPMQVNARCMVWDGDKRVLVRTSTTDSIYAVFAYPEMKFLSYTGSLSEYKQILAECNEGFYLVKDDSLYLYHLTDKDLLQKTTTHFLYNSNKIRLSKIKKLNDKMYTAHAYTDPSYNDIRLNEFYMLDAENNILYPKGHYPERTEVRFKTIFDFKFAYAHEVWPKPDGSRILVNYVRTRRFRIYDLSARLLHDVCLDYASNKYVVDADPKRWTTFIRDCFVTDKYIYLLCPEGEQSSLVIVDWEGRPIARYRLDEKIFFFFIDPDRNLFCGINSNNGQSFYFLDLDIN	not soluble
MGSDKIHHHHHHMKAGLRIGLVGPLPPPSGGMANQTLQLAGLLREEHVEVELIQVNRPYRPGWIGRFKGIRAGFRLLSYVSQLWLSAGRVQLFHVMANSGWSWHLFAAPAIWIARLRGKPVIINYRGGEADSFFDKAFSWVKPSLSRANAIIVPSGFLEGVFGKRGFSASIVPNIIDLSRFGAGMRSDTSTVEAGPDSPHIIVTRNLEPIYDNETALRAFHIVRRSFPAAKLTLAGSGPERHTLEQLAFALGIGGAVTFTGRVDNEGMAAIYRSASVMLNPSLADNMPISILEALASGVPVVSTNVGGVPYLVEHEKNALLVPARDPQAMANAVLRLLNDAARTRRLIEAGMECVQRYTWPNVRVPLFRVYEQVLAAPDRSC	not soluble
MGSDKIHHHHHHMKATKRIAEATQESLHRIFTIAEAPDSTLGRLEQEMSQNLVGFLNNHIVASKNALTDIEQDFINARIPEQPEFVSDHMHHLLDKLVAQSVHTSSPSFIGHMTSALPSFILPLSKLMVGLNQNLVKVETSKAFTPLERQVLGMMHNLVYQHDDVFYKNWMHSAEHSLGAFCSGGTVANITALWVARNKLLKADGDFRGVAREGLHRAMRHYGYQDLAILVSDRGHYSLKKSADILGIGQENVIAIPTDEHNKIDCQKLADKCQQLAAQNIKVLAIVGVAGTTETGNIDPLDKIAEIAQQNQCHFHVDAAWGGATLLSNKYRPLLKGIEQADSVTIDAHKQMYVPMGAGLVIFKDPASVSAIEHHAEYILRKGSKDLGSHTLEGSRPGMAMLVYSSLHIISRPGYEMLINQAIEKAEYFADIIHQHDDFELITRPELCLLTYRYAPKSVQALLARNDDEANKSVNMLLGKLTKFIQKRQREDGRSFVSRTRIEVSRYGGEKVIVFRVVLANPLTTKEILQGILQEQCQLAQESEQFLPELLQAAK	not soluble
MGSDKIHHHHHHMKCSLGLEKCPDDTLRCFPKIEQPFGIVIFGASGDLTKRKLIPALNRLFEAGILPERFFVLGAARTKMDDKKFRSRFDANPDFLEHCSYISVDYQDPESFKQLKNTIETLIKRIDSSNLVFYLAVPPDLYIPILENLSKTGLNEKPARVVIEKPFGKDLESARRLEDTLQKYFQEDQIFRIDHYLGKETVQNILVFRFANFIFEEIWNNKFVDHVQITMAEDIGVEHRAGYFENVGLLRDIFQNHMLQILALIAMEPPSSFNGENFRNERVKLLRSIRPFPVEELESWIVRGQYGRGVVNGKEVPAYREEPGVAKDSNVETFVAMKLFIDNWRWSGVPFYLRSGKRLPKKITEVAVVFKKIPHSIFAGVPSDELEPNTIVFTLQPNEGISLEFQVKRPCPGMFPQLLSMDFRYEDYFGVKLPDAYERLLLDVILGDPTLFMRRDDLEVSWELLDPVLKAWENDPVRFSPYVYPAGTWGPREADLLIERDGRKWRKL	not soluble
MGSDKIHHHHHHMKDTNRTHSADAATVEEALAADNHQGIVDSEGATALAMQNTLLTPRFYTTDFDEMDSLDVSSVREDWDTLIAQMKSDPNKGHFKKNEDWDSVDWDGMEPALKREFIDFLVSSCTAEFSGCVLYKEMKRRGNNEDIVTLFQLMARDEARHAGFINDALREAGIAVNLGFLTQKKKYTYFRPKFIYYATYLSEKIGYARYITIFRHLEANPEHRFHPIFKWFREWCNDEFSHGEAFALIMKSDPKFTQKWQNKLWIKFFLTAVYSTMYVRDHQRPVFHAALGVDPDWYAHEVFTKTSEITKQIFPITLDIENPRWQRGLEAMQRANVDLADAKANGKLFKRIGASIRAGAAFVNLFTIPANKHDAPASVRLEPAY	not soluble
MGSDKIHHHHHHMKEAGILFEELVSIMEKLRSPEGCEWDRKQTHESLKPYLIEECYELIEAIDEKNDDMMKEELGDVLLQVVFHAQIARERGAFTIEDVIRTLNEKLIRRHPHVFGDSPGYSYKQWEDIKAQEKGKKKSSRIGEINPLVPALSMARRIQENASQVGFDWKDPEGVYEKIEEELKELKEAKDPRELEEEFGDLLFSIVNLSRFLNVDPESALRKATRKFVERFKKMEELIEKDGLVLEELPIEKLDEYWEKAKGGDET	not soluble
MGSDKIHHHHHHMKEQNNIPTSKVERATKFVQTGAKIGGNYIKHYAKKAFNPELTKEQLHEDNSKDVYETLSQLKGSALKVAQMLSQDKNMLPQAYVDKFTMAQYSAPPLSYPLVVKTFQKYFGKSPESMFDTFERNASNAASIGQVHKATKDGKVFAVKIQYPGVAESVSSDLKLVKPFALRLMNMKEKDLDMYMDEVESKLIEETDYELELRRSNEISTQCAHITGLVFPAYYPEYSSKRILTMDWLEGLHMKEFLATNPSQEIRNQIGQLLWDFYDFQMHQLRTVHADPHPGNFLMRSNGSLGVIDFGCVKEIPEEFYTEYFKLLNKEVIEDKTELLKTFERLNFFDAEDTALQREIFFDLFCEMTHLLGLPFYSETFDFSDDSYFKRIYDFGEHISNVKEIKDARQARGSRHGIYINRTYFGLYNLLNQLGANVRTKSYGEVAIEV	not soluble
MGSDKIHHHHHHMKFKIHSDITYQVMSPTTFIFNVHALRTESQHILDESLIVTPPIEIEEFSYNSGTSRFVRLKATENTTFSMSYTATVDTQYKVIDQRQELETVPVVDLDGDIIPFLFPSRYCQSDKLQKLAYKEFGKIENVYSKVLAITDWIYNNVEYISGSTNSQTSAFDTITERAGVCRDFAHLGIALCRALSIPARYFTGYAFKLNPPDFHACFEAYIGGNWIIFDATRLVPLNGLVKIATGRDAADAAVASIFGNASSTNMHVECASLDTDFTPFWYDKNSLKGLSFQ	not soluble
MGSDKIHHHHHHMKIALGPISYCWEKDKVYTFYEKAAQSQVHSVYLGETVCSRRREVKLADYLAIARQLNAAGKEVILSTMALIEAQSEIGELKRCVDNGEFIIEANDMAAVHYASEAKLPFICGPSINNYNRASLDILHKLGMVRFVMPYELSRDWLTKVIETQPEFDIEVMGHGYMPLAHSARCFTAKHFGLRKDNCDTLCKTHPKGMLAQTQENQPLLRLNGIQTQSAAYVDLISEIPNMKALGVSYFRVSPTALSSIELADELCITLTQQQVPQSKHSSESCNGYWFGEAGFNQVSP	not soluble
MGSDKIHHHHHHMKIDDIDAFVAVIRCQSISHAAESLDLTQPAITRRVQNFEQALGVELFDRNTKPLKPTPMGIQVYQKCLAILREMDSLRELVASDTPPSGLLRLGVPQTIGDVVLLDALKQLRGEFPDLRAQVSTGWGSHLIGKIENGELDAAAALFPAGKIFPDNIVGQSIGKMELVVVCAKGSVPKKPGKLADCYEQGWVLNPDGCGFRAGLQRTLTDQGLSMKVNLETFGTELQLGLVADGMGLGLVPRPLLERSAHREQLVVLPLKDFKPVMDLWLFYPRFLGNLQAPVEAFGALVARSLKPLSAAA	not soluble
MGSDKIHHHHHHMKIGVFSVLFYDKNFEDMLDYVAESGLDMIEVGTGGNPGDKFCKLDELLENEDKRQAFMKSITDRGLQISGFSCHNNPISPDPIEAKEADETLRKTIRLANLLDVPVVNTFSGIAGSDDTAKKPNWPVTPWPTAYSEIYDYQWNEKLIPYWQDLAEFAKEQDVKIAIELHAGFLVHTPYTMLKLREATNEYIGANLDPSHLWWQGIDPIAAIRILGQANAIHHFHAKDTYINQENVNMYGLTDMQPYGNVATRAWTFRTVGYGHSPYVWADIISQLIINGYDYVLSIEHEDPIMSVEEGFQKACQTLKSVNIYDKPADMWWA	not soluble
MGSDKIHHHHHHMKIGVFVPIGNNGWLISTHAPQYMPTFELNKAIVQKAEHYHFDFALSMIKLRGFGGKTEFWDHNLESFTLMAGLAAVTSKIQIYATAATLTLPPAIVARMASTIDSISGGRFGVNLVTGWQKPEYDQMGMWPGDDYFASRYDYLTEYVQVLRDLWGTGRSDFKGDYFTMNDCRVSPRPSQPMKVICAGQSDAGMAFSAQHADYNFCFGKGVNTPTAFAPTAARMMQAAEKTGRDVGSYVLFMVIADETDEAARAKWEHYKAGADEEALAWLTEQSQKDTRSGSDTNVRQMADPTSAVNINMGTLVGSYASVARMLDEVASVPGTDGVLLTFDDFLAGIDAFGERIQPLMRCRNHIASVTREVA	not soluble
MGSDKIHHHHHHMKIIHVIASIDPKHGGLQAVAMRLAAAQAGLGLDVNIVSYGDAAIEAQVKEIGRSIPHFENIHWHLLPPAGRLETLFCFRGRRMLKALLKDASFMHIHGVWEPFLLYASKLARAAGVPYCICPAGMLDHWSLGQRSWKKKIALMLCYRRMLNEAAFLHLLNVDEMAAVETLNFQARNLIIPNGVFAEEFDPLPARGHFRQKIALAHGRRYILFLSRLHIKKGIDILASAFAAICETYVDVDLVVAGPPGGAEGHFMHLVKKLNIRHRVFMVGAIYGKAKLEAMVDADCFCLPSRQEGFSMAITEALACGTPVVITDQCHFPEVGSADAGLIVSVDAAEVAKALASMLGNPARARTMGENGRRLVLEKFTWPAIAHATLEGYRLSALEAAAS	not soluble
MGSDKIHHHHHHMKILICDDDSSITQSLSLIIKTYFNKKKVNNLDIVTFNDGDSLLSDKSQKDIIFLDIEMPGFDGIYVGNELKKQNDSVIIFIVTSYLEYLDAAMRFHVFRYLSKPIDKQRLFQNLDDALELYYSINQKIAVETKYGVTSVLTCDIVYVEAKGRKVIVHTATADLDSTQTLQFWIEHLPQATFFQSHRSYIVNMAMVTSFDHELIYLCDGQFTAYLTRRKFTEFKRAYLMFMESKR	not soluble
MGSDKIHHHHHHMKILLLNTSDARGGAAVAAMRLMETLQEAGAEVRMLVLNRNTTNPDIMALHSGRCGKTADKYRFLAERLHIYMCNGRDRSRLFHVSTALIGYDVSCHPWVRWADVIHLHWINQGFLSLRGLERLTRCGKSVVWTMHDMWPVTAICHHARECLRYRTECGACPQISSQKEKDLARLVWNRKSRVISLLRPTLIGCSHWLADLARQSALTDGLRIESIPNPIDTNLFAPGSRSDARRIMDLPTDRILLLFGAVQADDPRKGIYELSQAMKRLRERQPDLSKRIALVVFGSLRDEVRSLFPNYKLISIGYIREPSRMAELYRAADLFVIPSLEENLPNTIMEALSVGTPCVAFRVGGIPEMIVSGSTGYLAAFRDPSDLAEGITKTIALQETSPEAVASACRSFVLRHYSREVVSSRMLQLYRELL	not soluble
